Here are results for two substances from article doi:10.1101/2021.03.15.435138.

Broadly, the stoichiometry N is a count of units in the complex or per binding partner.

The target in this experiment is C-terminal hexahistidyl-tagged GluN3A subunit (UniProt Q9R1M7). Briefly: pull-down.
Sequence of C-terminal hexahistidyl-tagged GluN3A subunit (Q9R1M7 24-1135): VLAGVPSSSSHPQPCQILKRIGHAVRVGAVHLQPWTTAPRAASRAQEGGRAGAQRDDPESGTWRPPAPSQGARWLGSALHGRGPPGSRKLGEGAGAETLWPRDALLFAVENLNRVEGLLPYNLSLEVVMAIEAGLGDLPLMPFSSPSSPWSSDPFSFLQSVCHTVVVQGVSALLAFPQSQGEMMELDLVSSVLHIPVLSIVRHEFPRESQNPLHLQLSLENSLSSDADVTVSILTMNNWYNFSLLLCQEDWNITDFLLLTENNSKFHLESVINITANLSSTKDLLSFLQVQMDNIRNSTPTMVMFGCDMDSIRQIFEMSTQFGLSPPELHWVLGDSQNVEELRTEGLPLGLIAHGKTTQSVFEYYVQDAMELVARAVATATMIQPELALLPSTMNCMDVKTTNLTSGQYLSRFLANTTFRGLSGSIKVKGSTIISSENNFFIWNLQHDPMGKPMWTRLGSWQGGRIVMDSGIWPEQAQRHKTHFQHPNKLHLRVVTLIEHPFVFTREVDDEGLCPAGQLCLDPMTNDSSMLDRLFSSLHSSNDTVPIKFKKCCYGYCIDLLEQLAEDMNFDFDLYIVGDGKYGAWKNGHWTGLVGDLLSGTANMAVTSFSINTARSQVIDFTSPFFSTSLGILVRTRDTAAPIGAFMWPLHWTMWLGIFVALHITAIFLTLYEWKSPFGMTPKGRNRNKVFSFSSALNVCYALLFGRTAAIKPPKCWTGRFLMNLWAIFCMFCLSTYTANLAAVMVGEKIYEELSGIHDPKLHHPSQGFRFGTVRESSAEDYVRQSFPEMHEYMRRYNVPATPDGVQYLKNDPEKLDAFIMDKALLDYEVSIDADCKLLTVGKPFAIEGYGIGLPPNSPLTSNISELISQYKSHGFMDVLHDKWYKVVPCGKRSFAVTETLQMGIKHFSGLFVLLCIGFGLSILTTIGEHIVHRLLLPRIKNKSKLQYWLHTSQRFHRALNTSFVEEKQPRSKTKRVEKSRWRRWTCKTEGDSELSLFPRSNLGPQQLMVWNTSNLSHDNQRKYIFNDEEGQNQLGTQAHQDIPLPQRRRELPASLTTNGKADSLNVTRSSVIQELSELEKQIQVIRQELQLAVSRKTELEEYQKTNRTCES

Regarding “GluN1-1a (splice variant 1a) NMDA receptor subunit, wild type (from UniProt P35439 19-938)”, the stoichiometry N came out at 1.
In the case of “GluN1^1-802, M4-deleted GluN1 (from UniProt P35439 19-802) (domain or fragment)” it was 1.
